Reference: patent US20090098106A1 (YEDA RESEARCH AND DEVELOPMENT, published 2009)

T1: TRAF2 (UniProt Q12933 1-501, limits assumed)
T1 sequence (looked up): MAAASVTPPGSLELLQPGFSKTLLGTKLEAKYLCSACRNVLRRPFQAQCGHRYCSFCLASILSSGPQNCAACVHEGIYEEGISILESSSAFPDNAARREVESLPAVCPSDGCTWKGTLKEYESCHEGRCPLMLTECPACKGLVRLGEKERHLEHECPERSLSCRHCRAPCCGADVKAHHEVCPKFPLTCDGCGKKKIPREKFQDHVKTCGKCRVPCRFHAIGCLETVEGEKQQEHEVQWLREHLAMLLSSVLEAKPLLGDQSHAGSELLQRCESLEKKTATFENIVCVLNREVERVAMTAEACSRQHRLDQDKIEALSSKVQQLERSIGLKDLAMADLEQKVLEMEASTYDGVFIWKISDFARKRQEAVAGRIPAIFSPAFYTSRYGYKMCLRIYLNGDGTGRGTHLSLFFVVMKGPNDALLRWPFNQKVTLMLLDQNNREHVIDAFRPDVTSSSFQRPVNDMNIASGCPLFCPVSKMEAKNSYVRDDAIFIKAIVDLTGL

B1: NIK-N terminus (amino acids 1-367) (other)
chain: MAVMEMACPGAPGSAVGQQKELPKPKEKTPPLGKKQSSVYKLEAVEKSPVFCGKWEILNDVITKGTAKEGSEAGPAAISIIAQAECENSQEFSPTFSERIFIAGSKQYSQSESLDQIPNNVAHATEGKMARVCWKGKRRSKARKKRKKKSSKSLAHAGVALAKPLPRTPEQESCTIPVQEDESPLGAPYVRNTPQFTKPLKEPGLGQLCFKQLGEGLRPALPRSELHKLISPLQCLNHVWKLHHPQDGGPLPLPTHPFPYSRLPHPFPFHPLQPWKPHPLESFLGKLACVDSQKPLPDPHLSKLACVDSPKPLPGPHLEPSCLSRGAHEKFSVEEYLVHALQGSVSSSQAHSLTSLAKTWAARGSRS
notes: Yeast two-hybrid bait in pGBKT7
B2: HC8 (α7) subunit of the human 20S proteasome (other, UniProt P25788 1-255, looked up)
chain: MSSIGTGYDLSASTFSPDGRVFQVEYAMKAVENSSTAIGIRCKDGVVFGVEKLVLSKLYEEGSNKRLFNVDRHVGMAVAGLLADARSLADIAREEASNFRSNFGYNIPLKHLADRVAMYVHAYTLYSAVRPFGCSFMLGSYSVNDGAQLYMIDPSGVSYGYWGCAIGKARQAAKTEIEKLQMKEMTCRDIVKEVAKIIYIVHDEVKDKAFELELSWVGELTNGRHEIVPKDIREEAEKYAKESLKEEDESDDDNM
notes: Yeast two-hybrid: prey from a human bone marrow library, re-cloned into pGADT7; Co-immunoprecipitation: N-terminal HIS tag and/or C-terminal myc tag (pCDNA3); also called human C8
B3: NIK kinase domain (kinase motif, amino acids 400-650) (other)
chain: ATHQLRLGRGSFGEVHRMEDKQTGFQCAVKKVRLEVFRAEELMACAGLTSPRIVPLYGAVREGPWVNIFMELLEGGSLGQLVKEQGCLPEDRALYYLGQALEGLEYLHSRRILHGDVKADNVLLSSDGSHAALCDFGHAVCLQPDGLGKSLLTGDYIPGTETHMAPEVVLGRSCDAKVDVWSSCCMMLHMLNGCHPWTQFFRGPLCLKIASEPPPVREIPPSCAPLTAQAIQEGLRKEPIHRVSAAELGGK
notes: also called kinase motif of NIK

Legend:
[1] = target: B2; experiment: yeast two-hybrid, β-gal colour, strain SFY526 (bait NIK-N-ter, prey HC8)
From the text: (§1) Yeast 2 Hybrid Screening Assays: NIK or its deletions were cloned into pGBKT7 vector as bait and the preys were re-cloned into pGADT7 vector for assay in the yeast strain SFY526. The system used for screening was the Matchmaker version III (clontech). The prey was pretransformed human bone marrow library (cat# HY4053AH) pooled from 51 males/females in the age range 22-70. It belongs to a new generation of 2 hybrid libraries that offers high stringent quadruple drop out (QDO) selection along with α-gal assay. Clones growing on plates without LEU, TRP, HIS and ADE were reconfirmed by α-gal assay. Plasmids of the positive clones were prepared by lysis of the yeast cells with detergent and mechanical stress followed by phenol extraction and ethanol precipitation of the DNA. Encoded inserts from the plasmids were amplified by PCR with the primers specific for the library vector pACT2.
(§2) A yeast 2 hybrid screening was effected using intact NIK cDNA (GenBank Accession No. Y10256; SEQ ID NO: 5), NIK-C-terminus (amino acids 624-947 of SEQ ID NO: 5) or NIK-N terminus (amino acids 1-367) as a prey. The most prevalent prey which was found in these screenings was the α7 subunit (HC8) (GenBank Accession No. XM_{—}050947). […]

[2] = target: T1, TRAF2; experiment: yeast two-hybrid, β-gal colour, strain SFY526
[3] = target: T2, NIK-C-terminus (amino acids 624-947 of SEQ ID NO: 5) (human, UniProt Q99558 624-947); experiment: yeast two-hybrid, β-gal colour, strain SFY526 (bait NIK-C-ter, prey HC8)
T2 construct: Yeast two-hybrid bait in pGBKT7 (fusion partner not spelled out)
From the text: as §1, §2

[4] = target: T3, NF-κB inducing kinase (NIK), human, full length (human, UniProt Q99558 1-947); experiment: yeast two-hybrid, β-gal colour, strain SFY526 (bait NIK, prey HC8)
T3 construct: Yeast two-hybrid: cloned into pGBKT7 as bait (fusion partner not spelled out); Co-immunoprecipitation: N-terminal 6 myc tag (pCS3MTNIK) in 293T cells, or His tag in HeLa cells; also called intact NIK; wild type NIK
From the text: as §1, §2

[5] = target: B2; experiment: co-immunoprecipitation from HeLa cells with anti-NIK monoclonal antibody, Western blot

T2 sequence (Q99558 624-947): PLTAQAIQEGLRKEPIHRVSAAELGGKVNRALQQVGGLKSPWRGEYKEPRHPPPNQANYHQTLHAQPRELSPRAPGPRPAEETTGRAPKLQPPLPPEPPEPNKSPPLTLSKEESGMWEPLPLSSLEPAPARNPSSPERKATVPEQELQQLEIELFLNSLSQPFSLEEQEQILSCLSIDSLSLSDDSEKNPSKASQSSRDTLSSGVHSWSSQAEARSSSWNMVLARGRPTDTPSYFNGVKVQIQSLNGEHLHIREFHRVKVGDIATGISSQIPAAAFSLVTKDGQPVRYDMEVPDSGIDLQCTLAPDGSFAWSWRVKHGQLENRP

Binder: B1
binding result [1]: binds
binding result [2]: no binding

Binder: B2
binding result [3]: binds
binding result [4]: binds

Binder: B3
binding result [5]: no binding
